Measurements taken from patent US20240025993A1, “CD19 BINDING MOLECULES AND USES THEREOF” (NOVARTIS AG, priority 2020, published 2024).

Columns and labels:
[1] = Aggregation propensity (% HMW) by analytical SEC of IgG1 anti-CD3 antibody and Fc variants (Example 35); assay type: physicochemical; settings: PBS pH 7.4, anti-CD3 antibodies
Protocol: Size exclusion chromatography measurements were performed to evaluate the aggregation propensity (% HMW) of IgG1 antibody and Fc modified derivatives. The produced and purified anti CD3 antibodies were applied to an analytical size exclusion chromatography column (SEC 200, GE Healthcare), equilibrated with PBS buffer pH 7.4.

[2] = target: human FcγR1A (Homo sapiens, UniProt P12314); experiment: SPR binding of Fc modified anti-CD3 IgG1 antibodies (Example 34); settings: anti-CD3 IgG1 antibody immobilized
Protocol: Surface plasmon resonance (SPR) experiments were performed to analyze the interaction of human activating receptors FcγR1A, FcγR3A (V158) and human C1q with IgG1 WT and antibody-Fc variants. Binding kinetics and their relative binding affinities were explored. The binding affinity is an important characteristic of an interaction between an antibody and an antigen. The equilibrium dissociation constant (KD) defines how strong the interaction is and therefore how much antibody-antigen complex is formed at equilibrium.
The knowledge of the antibody characteristics is not only essential during selection of the best therapeutic antibody candidate, but also important to understand the in vivo behavior and potentially predict cellular immune responses. […] Binding to human C1q was evaluated. […] SPR measurements were measured on a Biacore T200 (GE-Healthcare Life Sciences) controlled by Biacore T200 control software version 2.0.1. […]
The antibodies were covalently immobilized on a CM5 sensor chip whereas Fc gamma receptors or human C1q served as analytes in solution (FIG. 38). […] Zero concentration samples (blank runs) were measured for both methods to allow double-referencing during data evaluation.
Data were evaluated using the Biacore T200 evaluation software. […] In addition, the maximum response reached during the experiment was monitored. […]

[3] = Differential scanning calorimetry, melting temperature of Fc modified anti-CD3 antibodies (Example 35); assay type: physicochemical; settings: DSC, 1 mg/ml in PBS pH 7.4, anti-CD3 IgG1 Fc variants
Protocol: Calorimetric measurements were carried out on a differential scanning micro calorimeter (Nano DSC, TA instruments). The cell volume was 0.5 ml and the heating rate was 1° C./min. All proteins were used at a concentration of 1 mg/m in PBS (pH 7.4). The molar heat capacity of each protein was estimated by comparison with duplicate samples containing identical buffer from which the protein had been omitted. The partial molar heat capacities and melting curves were analyzed using standard procedure. Thermograms were baseline corrected and concentration normalized.

[4] = tested on: Jurkat NFAT luciferized (JNL) cells with THP-1 cells; experiment: Anti-CD3 NFAT signalling assay, JNL + THP-1 cells (Example 36); assay type: cell-based, human
Protocol: Jurkat reporter gene assay (RGA) for the nuclear factor of activated T-cells (NFAT) pathway was performed using Jurkat NFAT luciferized (JNL) cells and THP-1 cells (ATCC, TIB202). THP-1 cells express FcγRI, FcγRII, and FcγRIII. Cells were co-incubated for 6 hours at 37° C., 5% CO2 at a 5:1 effector to tumor ratio with each sample at the various concentrations depicted. An equal volume of ONE-Glo™ reagent (Promega, E6110) was added to the culture volume. Plate was shaken for 2 minutes, then incubated for an additional 8 minutes protected from light. For JNL+ THP+IFNg experiment, THP-1 cells were pre-treated with 100 u/mL IFNg for 48 hours at 37° C., 5% CO2 before co-culture. IFNg stimulation increases FcγRI expression. Luciferase activity was quantitated on the EnVision plate reader (PerkinElmer). Data was analyzed and fit to a 5 parameter-logistic curve using GraphPad Prism.

[5] = tested on: T cells co-cultured with OCI-LY-19, Karpas422 or Toledo target cells; experiment: TBM and BBM mediated T cell proliferation (Example 20); assay type: cell-based, human; settings: in the presence of OCI-LY-19 and Toledo cells; E:T 1:3, 96 hrs
Protocol: Briefly, OCI-LY-19, Karpas422, and Toledo target cells stably expressing firefly luciferase were plated in a 96 well plate in T Cell Media (TCM) (RPMI-1640, ThermoFisher Scientific, Cat #11875-085), 10% FBS (Seradigm, Cat #1500-500), 1% L-Glutamine (Thermo Fisher Scientific, Cat #25830-081), 1% Non Essential Amino Acids (Thermo Fisher Scientific, Cat #11140-050),1% Pen/Strep (Thermo Fisher Scientific, Cat #15070063), 1% HEPES (Thermo Fisher Scientific, Cat #15630080), Sodium Pyruvate (Thermo Fisher Scientific, Cat #11360-070), 0.1% Beta-mercaptoethanol (Thermo Fisher Scientific, Cat #21985-023)]. PBMCs previously isolated and cryopreserved from 2 Leukopak donors were thawed and Pan T cells were isolated (as described earlier). Isolated T cells were labelled with 5 μM Cell Trace Violet (CTV) (Thermo Fisher Scientific, Cat #C34557) following the manufacturer's protocol and were co-cultured with target cells at an E:T ratio of 1:3. A dilution series of CD3med TSP1, CD3hi TSP1, CD3hi BSP1, CD3hi TSP1C, and blinatumomab ranging from 2.5 nM-0.0006 nM was added to cells and the plates were incubated in a 5% CO2, 37° C. incubator for 96 hrs. […]

[6] = THP-1 cells preincubated with IFNg (100 u/mL, 48 hours)

Sequence of human FcγR1A (P12314 16-374): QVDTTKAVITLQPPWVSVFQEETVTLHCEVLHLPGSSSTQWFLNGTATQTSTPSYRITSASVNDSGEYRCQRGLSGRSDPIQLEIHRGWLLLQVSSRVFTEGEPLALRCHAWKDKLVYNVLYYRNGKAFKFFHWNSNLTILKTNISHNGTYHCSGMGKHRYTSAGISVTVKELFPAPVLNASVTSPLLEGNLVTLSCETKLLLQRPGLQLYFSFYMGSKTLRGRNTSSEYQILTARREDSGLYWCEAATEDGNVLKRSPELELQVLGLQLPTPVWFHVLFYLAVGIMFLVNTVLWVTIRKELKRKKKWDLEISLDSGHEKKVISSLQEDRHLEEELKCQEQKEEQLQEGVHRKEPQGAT

Substance	(%) higher molecular weight [1]	Maximum response at 100 nM hFcgammaRIA (RU) [2]	Melting temperature (Tm) of CH2 domain [3]	NFAT activity (T-cell activation) [4, 6]	NFAT activity (T-cell activation) ([4]; without IFNg, JNL:THP-1 5:1, 6 hours)	T cell proliferation (% proliferated CD3+ T cells) [5]
LALAGA-IgG1: anti-CD3 IgG1 with L234A/L235A/G237A	2.9%	15 RU	70 °C			
LALAPG-IgG1: anti-CD3 IgG1 with L234A/L235A/P329G	4.2%	18 RU	70 °C			
LALAPA-IgG1: anti-CD3 IgG1 with L234A/L235A/P329A	1.8%		70 °C	some activity remaining		
DAPA-IgG1: anti-CD3 IgG1 with D265A/P329A; previously described silencing motif [reference compound]	3.9%		65 °C	some activity remaining	comparable T-cell activation with the exception of DAPA	
blinatumomab: bispecific T cell engager, or BiTE, that binds to both CD19 and CD3 but lacks an Fc domain [reference compound]						most potent T cell proliferation
